From patent US20030186377

Test system: T-bet protein (modified forms used as substrates in in vitro kinase assays)

Substance	phosphorylation in in vitro kinase assay
ITK	Both the ITK and Rlk/txk kinases have been found to phosphorylate T-bet in vitro.
Rlk/Txk	Both the ITK and Rlk/txk kinases have been found to phosphorylate T-bet in vitro.
